The source of these data is patent US20150087552A1.

Assay [1] concerns the target Kv2.1 "wild-type" base construct hKv2.1-m7-c3 (human Kv2.1, residues 1-858, mutated to confer AgTx2 (human) (UniProt Q14721)). Briefly: cell-based or functional assay.
Assay [2] concerns the target Kv2.1 R300S (on the hKv2.1-m7-c3 base construct) (human) (UniProt Q14721). Briefly: cell-based or functional assay.

Chain of AgTx2 (Agitotoxin-2 / agitoxin 2, scorpion toxin) (P46111 whole entry): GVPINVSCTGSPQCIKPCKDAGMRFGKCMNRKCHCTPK

With “AgTx2 (Agitotoxin-2 / agitoxin 2, scorpion toxin) (from UniProt P46111 1-38) (peptide)”, the mean inhibition of the maximal outward (alpha pore) current at +60 mV by 1 nM AgTx2, two-electrode voltage clamp, Xenopus oocytes is 66.5% in assay [1] and 67.8% in assay [2].
